{
  "source": "paper PMC10539301",
  "biological_target": "ATAD2 Walker B mutant (E532Q), aa 403-1390 (human) (UniProt Q6PL18)",
  "sequence (Q6PL18 403-1390 E532Q)": "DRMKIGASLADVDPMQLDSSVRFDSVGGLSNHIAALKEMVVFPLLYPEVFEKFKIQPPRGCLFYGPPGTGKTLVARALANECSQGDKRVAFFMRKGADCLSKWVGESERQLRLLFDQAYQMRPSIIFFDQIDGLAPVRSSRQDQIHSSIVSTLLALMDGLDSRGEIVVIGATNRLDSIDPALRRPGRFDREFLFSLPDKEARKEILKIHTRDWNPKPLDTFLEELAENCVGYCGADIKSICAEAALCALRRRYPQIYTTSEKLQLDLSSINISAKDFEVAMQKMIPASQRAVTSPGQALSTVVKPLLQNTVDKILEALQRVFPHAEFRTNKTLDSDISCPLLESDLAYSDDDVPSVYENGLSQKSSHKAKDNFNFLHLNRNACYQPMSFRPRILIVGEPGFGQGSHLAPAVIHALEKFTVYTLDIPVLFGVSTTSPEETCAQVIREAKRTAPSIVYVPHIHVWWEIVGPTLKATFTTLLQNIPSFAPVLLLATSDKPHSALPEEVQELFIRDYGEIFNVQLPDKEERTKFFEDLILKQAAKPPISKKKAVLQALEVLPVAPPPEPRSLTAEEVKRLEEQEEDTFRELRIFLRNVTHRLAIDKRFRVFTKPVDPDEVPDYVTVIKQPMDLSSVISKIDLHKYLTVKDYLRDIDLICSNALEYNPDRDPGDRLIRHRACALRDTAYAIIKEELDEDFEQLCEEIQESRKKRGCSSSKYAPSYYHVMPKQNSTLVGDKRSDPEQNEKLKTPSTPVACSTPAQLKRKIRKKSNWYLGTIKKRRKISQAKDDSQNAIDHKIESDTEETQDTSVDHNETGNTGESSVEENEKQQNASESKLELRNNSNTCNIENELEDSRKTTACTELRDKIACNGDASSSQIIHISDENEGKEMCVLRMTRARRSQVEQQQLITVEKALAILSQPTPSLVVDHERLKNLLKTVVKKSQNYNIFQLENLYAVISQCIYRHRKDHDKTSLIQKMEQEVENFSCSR",
  "data": [
    {"substance": "Histone H3/H4 complex (X. laevis, wild type, refolded) (from UniProt P84233 1-136; P62799 1-103)", "values": [
      {"measurement": "HS-AFM: increase of the frequency of symmetry breaking of the ATAD2 Walker B hexameric ring (events per ring or per cumulative observation time) with H3/H4", "result": 40, "unit": "%"},
      {"measurement": "HS-AFM: reversibility of symmetry breaking of the ATAD2 Walker B hexameric ring, without and with H3/H4", "result": 30, "unit": "%"}
    ]}
  ]
}
